This is an account of results in patent publication US20030082561, “Zinc finger domain recognition code and uses thereof” (published 2003).

The data set addresses AL1 ZFP (Clone 1) (artificial). Description: EMSA; significant binding at 14-35 nM; text prints SEQ ID NO 27 for the bound probe, apparently meaning the G (wild-type) probe SEQ ID NO 26. As to conditions: tags: three Sp1C domain 2 framework fingers, pET21-a, E. coli BL21(DE3)pLysS; label: 5'-32P. On the technique in general: A gel shift assay detects complexes by their altered migration in electrophoresis.

AL1 ZFP (Clone 1) (artificial), sequence (chain, as listed by the source): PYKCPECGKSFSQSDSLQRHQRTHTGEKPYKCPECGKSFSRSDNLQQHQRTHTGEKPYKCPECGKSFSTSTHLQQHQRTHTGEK

B1: AL1 probe G (wild type) (dsDNA)
DNA 1: TATATATAAGTAAGGTAGTATATATA
DNA 2: TATATATACTACCTTACTTATATATA
On to B1, for which the binding result is “binds”.
